Measured values published in paper PMC10013841 (Proceedings of the National Academy of Sciences of the …, 2023).

Molecular target: SARS-CoV-2 Spike S1 domain (amino acids 14 to 681), HEK293-produced (SARS-CoV-2, UniProt P0DTC2 14-681)
Assay: far-Western, overlay or dot blot
Details: both partners purified

B1: cyanovirin-N (natural protein)
chain: LGKFSQTCYNSAIQGSVLTSTCERTNGGYNTSSIDLNSVIENVDGSLKWQPSNFIETCRNTQLAGSSELAAECKTRAQQFVSTKINLDDHIANIDGTLKYE
notes: also called CV-N
binding result: binds
